Measurements from US20130142788A1 (published 2013).
* marks the point of attachment. Biotin = O=C1N[C@H]2[C@H](CS[C@H]2CCCCC(=O)*)N1

Assays:
[1] = target: T1, recombinant mature dimeric myostatin (human and mouse (mature sequences 100% …, UniProt O08689 268-376)); experiment: ActRIIb neutralisation ELISA: inhibition of 2 nM biotinylated myostatin binding to coated ActRIIb
T1 construct: also called GDF-8; mature myostatin
T1 sequence: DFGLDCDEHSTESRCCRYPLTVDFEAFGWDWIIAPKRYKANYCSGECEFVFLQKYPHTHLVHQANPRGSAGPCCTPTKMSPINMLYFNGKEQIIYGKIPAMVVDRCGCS
Summary of the method: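 Soluble ActRIIb coated at 1 μg/ml; 2 nM biotinylated myostatin pre-incubated 30 min at 37° C with antibody dilution series, then bound to plate 1 h at 37° C. Bound myostatin detected with streptavidin-HRP, absorbance at 490 nm after acid stop.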

[2] = target: T2, myostatin artificial peptide No 29 (SGSGHTHLVHQANPRGSA) (HELM PEPTIDE1{[O=C1N[C@H]2[C@H](CS[C@H]2CCCCC(=O)[*:2])N1].S.G.S.G.H.T.H.L.V.H.Q.A.N.P.R.G.S.A.[am]}$$$$V2.0; SMILES …); experiment: SRU BIND biosensor, peptides captured on streptavidin plate
T2 construct: also called Peptide 29
T2 peptide: SGSGHTHLVHQANPRGSA
Protocol: (§1) Work was carried out on an SRU BIND reader (SRU Biosystems). A streptavidin biosensor plate was washed, a baseline reading taken, and biotinylated peptides captured onto the streptavidin coated biosensor plate. The plate was washed again, and a new baseline reading taken, antibody was then added and binding monitored.

[3] = target: T3, myostatin artificial peptide No 33 (SGSGNPRGSAGPCCTPTK) (cysteine pairing not given here); experiment: as above
T3 construct: also called Peptide 33
T3 peptide: Biotin-SGSGNPRGSAGPCCTPTK-NH2
Protocol: as §1

[4] = target: T4, myostatin artificial peptide No 47 (SGSGIIYGKIPAMVVDRC) (HELM PEPTIDE1{[O=C1N[C@H]2[C@H](CS[C@H]2CCCCC(=O)[*:2])N1].S.G.S.G.I.I.Y.G.K.I.P.A.M.V.V.D.R.C.[am]}$$$$V2.0; SMILES …); experiment: as above
T4 construct: also called Peptide 47
T4 peptide: SGSGIIYGKIPAMVVDRC
Protocol: as §1

[5] = target: T5, myostatin artificial peptide No 39 (SGSGTKMSPINMLYFNGK) (HELM PEPTIDE1{[O=C1N[C@H]2[C@H](CS[C@H]2CCCCC(=O)[*:2])N1].S.G.S.G.T.K.M.S.P.I.N.M.L.Y.F.N.G.K.[am]}$$$$V2.0; SMILES …); experiment: as above
T5 construct: also called Peptide 39
T5 peptide: SGSGTKMSPINMLYFNGK
Protocol: as §1

[6] = target: T6, myostatin artificial peptide No 9 (SGSGRYPLTVDFEAFGWD) (HELM PEPTIDE1{[O=C1N[C@H]2[C@H](CS[C@H]2CCCCC(=O)[*:2])N1].S.G.S.G.R.Y.P.L.T.V.D.F.E.A.F.G.W.D.[am]}$$$$V2.0; SMILES …); experiment: as above
T6 construct: also called Peptide 9
T6 peptide: SGSGRYPLTVDFEAFGWD
Protocol: as §1

[7] = target: T7, myostatin artificial peptide No 31 (SGSGVHQANPRGSAGPCC) (cysteine pairing not given here); experiment: as above
T7 construct: also called Peptide 31
T7 peptide: Biotin-SGSGVHQANPRGSAGPCC-NH2
Protocol: as §1

[8] = target: T8, myostatin artificial peptide No 25 (SGSGFVFLQKYPHTHLVH) (HELM PEPTIDE1{[O=C1N[C@H]2[C@H](CS[C@H]2CCCCC(=O)[*:2])N1].S.G.S.G.F.V.F.L.Q.K.Y.P.H.T.H.L.V.H.[am]}$$$$V2.0; SMILES …); experiment: as above
T8 construct: also called Peptide 25
T8 peptide: SGSGFVFLQKYPHTHLVH
Protocol: as §1

[9] = target: T9, myostatin artificial peptide No 5 (SGSGHSTESRCCRYPLTV) (cysteine pairing not given here); experiment: as above
T9 construct: also called Peptide 5
T9 peptide: Biotin-SGSGHSTESRCCRYPLTV-NH2
Protocol: as §1

[10] = target: T10, myostatin artificial peptide No 45 (SGSGGKEQIIYGKIPAMV) (HELM PEPTIDE1{[O=C1N[C@H]2[C@H](CS[C@H]2CCCCC(=O)[*:2])N1].S.G.S.G.G.K.E.Q.I.I.Y.G.K.I.P.A.M.V.[am]}$$$$V2.0; SMILES …); experiment: as above
T10 construct: also called Peptide 45
T10 peptide: SGSGGKEQIIYGKIPAMV
Protocol: as §1

[11] = target: T11, myostatin artificial peptide No 43 (SGSGLYFNGKEQIIYGKI) (HELM PEPTIDE1{[O=C1N[C@H]2[C@H](CS[C@H]2CCCCC(=O)[*:2])N1].S.G.S.G.L.Y.F.N.G.K.E.Q.I.I.Y.G.K.I.[am]}$$$$V2.0; SMILES …); experiment: as above
T11 construct: also called Peptide 43
T11 peptide: SGSGLYFNGKEQIIYGKI
Protocol: as §1

[12] = target: T12, myostatin artificial peptide No 7 (SGSGSRCCRYPLTVDFEA) (cysteine pairing not given here); experiment: as above
T12 construct: also called Peptide 7
T12 peptide: Biotin-SGSGSRCCRYPLTVDFEA-NH2
Protocol: as §1

[13] = target: T1, recombinant mature dimeric myostatin; experiment: cell-based or functional assay

IC50 [1]: 0.172 nM | binding result [2]: no binding | binding result [3]: no binding | binding result [4]: no binding | binding result [5]: no binding | binding result [6]: no binding | binding result [7]: no binding | binding result [8]: no binding | binding result [9]: no binding | binding result [10]: no binding | binding result [11]: no binding | binding result [12]: no binding | IC50, myostatin responsive reporter gene neutralisation assay (A204) [13]: 10 nM
B1: mouse monoclonal antibody 10B3 (antibody, mouse IgG2a, V domains shown)
VH: EVQLQQSGPELVKPGASVKISCKASGYSFTGYFMHWVKQSHGNILDWIGNIYPYNGVSNYNQRFKAKATLTVDKSSSTAYMELRSLTSEDSAVYYCARRYYYGTGPADWYFDVWGTGTTVTVSS
VL: DIKMTQSPSSMYASLRERVTITCKASQDINSYLSWFQQKPGKSPKTLIYRANRLVDGVPSRFSGSGSGQDYSLTISSLEYEDMGIYYCLQCDEFPLTFGAGTKLELK
notes: Murine IgG2a/k; also called 10B3 mouse parental; parental 10B3
